Data set [1] in a line: Bioavailability of insulin from serum pharmacokinetic curve (human insulin ELISA). Type of data set: in vivo, experimental minipigs. The note with it: minipigs, (AUC/dose) relative to subcutaneous injection group, serum insulin over 4 hours. The source says:
Considering the similarities between pigs and humans in the structure of the digestive system and physiological functions, experimental minipigs were used as the animal model for functional verification of the apparatus in this example. To prevent the pigs' chewing behavior from damaging the microneedle drug delivery apparatus and to take the individual variations in gastric emptying time into account, in this example, after anesthetizing the pigs, the microneedle drug delivery apparatus prepared in Example 2 was delivered into the pigs' duodenum using a gastroscope, and this moment was defined as time zero, the beginning of monitoring of the drug concentration in serum and the drug delivery effect. Central venous blood samples were collected every 20 minutes for a continuous time period of 4 hours. Excess blood was placed in a coagulation tube, left to stand for approximately 40 minutes, and then centrifuged to separate the serum. […] Calculating the area under this curve (AUC) can be used to compare the bioavailability of different drug delivery methods. […] The bioavailability was calculated as the ratio of the area under the pharmacokinetic curve (AUC)/administered dose of the test group to the corresponding value of the subcutaneous injection group, for evaluating the efficiency of a drug delivery method. […]

For another data set, the system named is blood glucose. Kind of data set: Hypoglycemic effect of insulin-loaded microneedle drug delivery apparatus in minipigs. Type of data set: in vivo, experimental minipigs. The note with it: delivered into duodenum by gastroscope, real-time blood glucose over 4 hours. The text has this: Considering the similarities between pigs and humans in the structure of the digestive system and physiological functions, experimental minipigs were used as the animal model for functional verification of the apparatus in this example. To prevent the pigs' chewing behavior from damaging the microneedle drug delivery apparatus and to take the individual variations in gastric emptying time into account, in this example, after anesthetizing the pigs, the microneedle drug delivery apparatus prepared in Example 2 was delivered into the pigs' duodenum using a gastroscope, and this moment was defined as time zero, the beginning of monitoring of the drug concentration in serum and the drug delivery effect. Central venous blood samples were collected every 20 minutes for a continuous time period of 4 hours. Real-time blood glucose was measured using a portable blood glucose meter, and the results were illustrated in FIG. 13 and FIG. 14.

Experimental findings from patent US20260077170A1, “MICRONEEDLE DRUG DELIVERY APPARATUS AND PREPARATION METHOD THEREOF” (TSINGHUA UNIVERSITY, priority 2023, published 2026) are described below.

Consider human recombinant insulin, for which the bioavailability in data set [1] was 0.6%. The hypoglycemic effect entry in the data set on blood glucose is on record as “poor hypoglycemic effect”.
